Article doi:10.1101/864769

Molecular target: CP-capped actin filament barbed ends (not stated | chicken) (UniProt P60709)
Assay: single-filament uncapping assay

Kd: 300 nM
Substance: mouse twinfilin-1 (from UniProt Q91YR1 1-350) (natural protein)
